Data reported in patent US20260242430A1, “NOVEL FUNGAL DERIVED COMPOUNDS” (Aalborg Universitet, priority 2023, published 2026).

Tests used:
[1] = tested on: Apiosporin from a lysate of Apiospora arundinis (Isolate AAU773); test: Octet measurement of sdAbs capturing Apiosporin from fungal lysate; type: binding
Experimental: The Aim was to establish that selected antibody fragments could capture their target antigen Apiosporin from a lysate of WT Apiospora arundinis (Isolate AAU773), whereas no antigen would be bound specifically to the antibody fragments when KO Apiospora arundinis were applied in the binding assay.
The sdAbs produced as in example 9 were applied to amine reactive biosensors from Sartorius for the Octet instrument. First the reagents were prepared according to the AR2G kit instructions. For a standard immobilization scouting assay 200 μL/well of water was added to column 1 of a 96-well plate. The 200 μL/well 1 M ethanolamine pH 8.5 were added to column 4. 200 μL/well assay running buffer into column 5. Here the provided Kinetics Buffer (dilute the 10× Kinetics Buffer 10-fold in PBS) was used. 200 μL/well of the sdAbs were added to column 6 at a concentration of 500 nM. The sdAbs were prepared to be immobilized. Protein was prepared in each of the 10 mM acetate buffers at pH 4, 5 and 6. A starting ligand concentration of at least 20 μg/mL is recommended. The ligand concentration may be decreased as low as 5 μg/mL if the immobilization time is extended; some performance loss is expected at lower ligand concentrations. Prepare 500 μL at each pH.
As Apiosporin is present in an unknown concentration in the crude extracts, it is not possible to estimate a Kd from the sensorgram. Also, it is not possible to fit the raw data to a nice binding curve when a ligand concentration is not known. However, in order to allow fitting a concentration of 100 nM and 10 nM (resulting in almost identical fitting curves) of Apiosporin were inserted. The same fitting settings were used for all (data correction aligning to the association step with baseline correction to dissociation, Savitzky-Golay filtering to smoothen the curves, 1:1 model graph fitting to association and dissociation separately). […] It thus establishes that there is a normal association/dissociation between Apiosporin and sdAbs for the WT, but no association/dissociation for the KO as expected. Thus, it is seen that the antibodies are specific against the compound produced from the NRPS.

Apiosporin = test: Immunoprecipitation of Apiosporin from fungal extract by sdAbs with mass spec identification; type: binding, Apiospora arundinis; details: Protein A SpinTrap
Experimental: 50 μl of the partial pure sdAbs prepared in example 9 and 150 μl fungal extract (resuspended in PBS with 500 mM NaCl and 0.2% Tween20) were incubated overnight at 4° C. The mixed sdAb and fungal extract were purified on a SpinTrap Protein A from Cytivia accoridng to manufactures instructions except that the elution was performed into 50% AcN 5% formic acid.
The same immune precipitations were analysed by HPLC-DAD-HRMS using a Hitachi Elite LaChrom HPLC system, equipped with a phenyl-hexyl 100 Å (150×4.6 mm Kinetex 5 μm, Phenomenex) column kept at 40° C. and coupled by a 5:95 flow splitter to a high-resolution mass spectrometer (compact qTOF, Bruker) with an electrospray source (Capilary: 4500 V; end plate offset 500 V; Dry gas 4.0 L/min, 200° C.) operated in positive mode. The injection volume was set to 30 μL and separated using a 1.2 mL/min gradient initiating at 10% solvent A (acetonitrile (HiPerSolv CHROMANORM, VWR) with 0.1% v/v formic acid (MS-grade 98%, Sigma-Aldrich)) in 90% solvent B (water (HiPerSolv CHROMANORM, VWR) with 0.1% v/v formic acid (MS-grade 98%, Sigma-Aldrich)), increasing linearly to 100% solvent A over 17 minutes and held for 6 minutes. After 0.5 minutes from sample injection, 2 μL calibrant (10 mM NaOH and 26 mM formic acid (MS-grade 98%, Sigma-Aldrich) in 1:1 water (HiPerSolv CHROMANORM, VWR): isopropanol) was injected directly to the mass analyser and used for internal spectra calibration. Mass spectrometric instrument control, data recording and data processing was performed using Compass DataAnalysis 4.2 SR2 (Bruker).

[2] = tested on: Apiospora arundinis (Isolate AAU773); test: Immunofluorescent staining of Apiospora arundinis with sdAbs; type: cell-based; details: primary sdAb 70 nM, ALFA tag secondary (Alexa 647)
Experimental: Apiospora arundinis (Isolate AAU773) were grown in liquid culture and spotted on glass cover slips where they were immobilized using tape. The fungi were fixed by addition of 3.7% paraformaldehyde for 10 min. Then blocking with 5% skim milk in PBS before staining with the primary sdAbs (70 nM) overnight, secondary antibody (ALFA sdAb-FluoTag-X2 from Synaptic Systems, the antibody was labelled with Alexa flour 647 and used at a dilution of 1:500 for 3 h, washing 3×5 min with PBS, then staining for 2 min with calcofluor white stain (calcofluor white 1 g/l, evans blue 0.5 g/l), then wash 1×5 min with PBS.

[3] = WT fungal extract, 1:1 model fit, Apiosporin concentration assumed 100 nM

Row | Molecule | Association/dissociation (binding to ligand) on Octet ([1]; KO fungal extract) | Association/dissociation (binding to ligand) on Octet [1, 3] | Immunoprecipitation of Apiosporin, identified by mass spec (Apiosporin) | Immunofluorescent staining of septa ([2]; KO fungi) | Immunofluorescent staining of septa ([2]; WT fungi)
1 | AP2: single domain antibody (sdAb) selected against Apiosporin, SEQ ID NO: 11 (protein) VHH: EVQLLESGGGLVQPGGSLRLSCAASGFRDSDEDMGWVRQAPGKGLEWVSSIETPDGSTYYADSVKGRFTISRDNSKNTLYLQMNSLRAEDTAVYYCASQPVYSYHFDYWGQGTLVTVSSAAA | absent in the KO | binding to a ligand present in the WT extracts | identification of Apiosporin after immunoprecipitation | – | –
2 | AP7: single domain antibody (sdAb) selected against Apiosporin, SEQ ID NO: 31 (protein) VHH: EVQLLESGGGLVQPGGSLRLSCAASGFRDSDEDMGWVRQAPGKGLEWVSSIEGPSGSTYYADSVKGRFTISRDNSKNTLYLQMNSLRAEDTAVYYCASVTWWTHPFDYWGQGTLVTVSSAAA | – | – | identification of Apiosporin after immunoprecipitation | – | –
3 | AP1: single domain antibody (sdAb) selected against Apiosporin, SEQ ID NO: 6 (protein) VHH: EVQLLESGGGLVQPGGSLRLSCAASGFRDSDEDMGWVRQAPGKGLEWVSSIYSYNGSTYYADSVKGRFTISRDNSKNTLYLQMNSLRAEDTAVYYCASDRGGYNSFDYWGQGTLVTVSSAAA | absent in the KO | binding to a ligand present in the WT extracts | identification of Apiosporin after immunoprecipitation | No clearly staining in septa | Staining is clearly shown in septa between two hyphae
4 | AP3: single domain antibody (sdAb) selected against Apiosporin, SEQ ID NO: 16 (protein) VHH: EVQLLESGGGLVQPGGSLRLSCAASGFRDSDEDMGWVRQAPGKGLEWVSSIGGYNGSTYYADSVKGRFTISRDNSKNTLYLQMNSLRAEDTAVYYCASEGYYTSAFDYWGQGTLVTVSSAAA | absent in the KO | binding to a ligand present in the WT extracts | – | – | –
5 | AP4: single domain antibody (sdAb) selected against Apiosporin, SEQ ID NO: 21 (protein) VHH: EVQLLESGGGLVQPGGSLRLSCAASGFRDSDEDMGWVRQAPGKGLEWVSSIDAEDGSTYYADSVKGRFTISRDNSKNTLYLQMNSLRAEDTAVYYCASDSGDWFSFDYWGQGTLVTVSSAAA | absent in the KO | binding to a ligand present in the WT extracts | – | – | –
